Holding throughout (conditions): 50 mM Tris-HCl pH 7.5, 50 mM NaCl, 10 mM MgCl2; SV at 20 C, SE under same conditions (5000 rpm, 260 nm)
Data set [1] has as its target T1, p6 wt (Bacillus subtilis phage phi29) (UniProt P03685).
T1 sequence: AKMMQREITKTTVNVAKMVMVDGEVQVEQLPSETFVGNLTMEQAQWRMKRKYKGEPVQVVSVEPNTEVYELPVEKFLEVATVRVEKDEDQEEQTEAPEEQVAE
Nature of the data set: sedimentation equilibrium.

Data set [2] concerns the target T2, p6CΔ20 del85-104 (Bacillus subtilis phage phi29) (UniProt P03685).
T2 sequence: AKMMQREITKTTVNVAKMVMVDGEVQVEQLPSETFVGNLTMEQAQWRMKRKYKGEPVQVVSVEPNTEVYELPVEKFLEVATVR
Put plainly: sedimentation equilibrium.

For data set [3], the target named is T2, p6CΔ20 del85-104 (Bacillus subtilis phage phi29). Put plainly: sedimentation velocity.

The Kd is the concentration at which binding is half-saturated. A high value points to a looser complex.

With “GCCCACATACTTTGTTGATTGGTTGTCAATCATGGCAAAAGTGCACGCTACTTTGATAACCTTTTACATGCGACACAGACGAAGCGCTAAAACGTGGGATTCTGTGTCGTTTTATGTTGTTCATTGACAAACCTATCTAGTAGGTCTATAGATTGATATATTAAGTAGTAGTTTCCCTCCCTGATCATGGTATGCCGAGGATCGACGGATTATGTCGATATTAGGAGAATGGTATCATGTGAGGGTGGGGGCTTACTTT (double strand) [L fragment (DNA-L)]”, the results for the Kd in data set [1] and in data set [2] were 2.46 µM and 1.47 µM, respectively. Besides, the binding entry in data set [3] is listed as “binds”.

For the origin of these results see PMC10899789.
